# In PMC8156991, “The Profound Influence of Lipid Composition on the Catalysis of the Drug Target NADH Type II Oxidoreductase” (Membranes, 2021):
# B1: CthNDH-2 (Caldalkalibacillus thermarum type II NADH:quinone oxidoreductase) (Caldalkalibacillus thermarum TA2.A1) (protein)
# chain: MSKPSIVILGAGYGGIVAALGLQKRLNYNEADITLVNKNDYHYITTELHQPAAGTMHHDQARVGIKELIDEKKIKFVKDTVVAIDREQQKVTLQNGELHYDYLVVGLGSEPETFGIEGLREHAFSINSINSVRIIRQHIEYQFAKFAAEPERTDYLTIVVGGAGFTGIEFVGELADRMPELCAEYDVDPKLVRIINVEAAPTVLPGFDPALVNYAMDVLGGKGVEFKIGTPIKRCTPEGVVIEVDGEEEEIKAATVVWTGGVRGNSIVEKSGFETMRGRIKVDPYLRAPGHENIFIVGDCALIINEENNRPYPPTAQIAIQHGENVAANLAALIRGGSMTPFKPHIRGTVASLGRNDAIGIVGGRKVYGHAASWLKKLIDMRYLYLIGGLSLVLKKGRF
# Substrate: CC1=CC(=O)c2ccccc2C1=O
# Assay: cells, lysate or membranes named
# Assay type: biochemical, Caldalkalibacillus thermarum
# Settings: 33% PG + 67% PE vesicles with 1% menaquinone-7 embedded as shuttle, co-substrate NADH, 20 mM MOPS, 30 mM Na2SO4, pH 7.4, 25 °C, lipid-dependent
protein,measurement,value
B1,Km,21.7 µM
